In patent US20220143148A1, “COMPOSITIONS AND METHODS FOR MODULATING CGRP SIGNALING TO REGULATE INTESTINAL INNATE LYMPHOID CELLS” (The Broad Institute, Inc., priority 2019, published 2022):

System: small intestinal immune cells
Test: Droplet-based scRNA-seq of small intestinal immune cells (LP and PP), OVA vs PBS, clustering and differential expression
Format: in vivo, mouse
Details: cluster ID 12, LP; for LN (average fold change): OVA vs PBS
Source text: To comprehensively characterize small intestinal immune cells, Applicants generated scRNA-Seq profiles for 58,067 immune cells collected from lamina propria (LP) and Peyer's patch (PP) regions at steady state and after induction of a type 2 inflammatory reaction to ovalbumin (OVA) (Brandt et al., 2003) (FIGS. 1A and 8A). To ensure sufficient representation of rare cells, Applicants combined a normalization strategy—removing by flow sorting either a portion of IgD+ naïve B cells, which are the most abundant cell type in PPs, or all CD19+ and CD3+ T cells (FIG. 8B, Methods)—with profiling of a sufficiently large number of cells number (P>0.99 to recover at least 15 cells from each cluster, Methods) by massively parallel scRNA-seq (Haber et al., 2017) (Methods). Applicants obtained 36,797 and 21,270 high quality cells passing initial filtering (Methods) from PP and LP regions, respectively.
Overall, Applicants annotated 27 cell subsets across the two compartments, spanning T cells, B cells, ILCs, dendritic cells (DCs), myeloid cells and stromal cells, in frequencies ranging from 0.07% to 14%. Briefly, Applicants first partitioned the cells from the PP regions by unsupervised clustering (Methods) into 46 clusters, retained the 97% of cells that were robustly assigned cell identities in each cluster (Methods), assigned the cells from the LP regions to the 46 clusters using a classifier (Methods), and visualized the data with scvis (Ding et al., 2018), a deep generative model-based method (FIGS. 1B and 8C, Methods). Next, Applicants identified genes that were differentially expressed between the cells in each cluster and the remaining cells (Table 1, Methods), as well as between pairs of clusters (Table 2), to elucidate identities of similar cell types/states. Applicants excluded from downstream analysis clusters mostly consisting of contaminants from epithelium, likely doublets, or cells with a small number of Unique Molecular Identifiers (UMIs) (FIGS. 1C and 8D), or lacking distinct markers (Methods). Altogether, Applicants retained 27 clusters spanning 85% of the cells and each associated with distinct marker genes (FIG. 8E, Methods).
To induce allergic reaction to OVA, 6 to 7 weeks old mice were sensitized twice, two weeks apart, with 50 μg of OVA plus 1 mg of aluminum potassium sulfate adjuvant via intraperitoneal injection. Two weeks later, mice were orally administered with 50 mg of OVA on every other day for a total of five times. 1 μg of α-CGRP peptide was administered simultaneously when indicated. Mice were deprived of food for 3-4 hours in cages with wood chip bedding for limiting antigen degradation in the stomach before each intragastric challenge.
Isolation of cells from Peyer's patches (PPs). Peyer's patches (PPs) were carefully dissected from the small intestine under a stereo microscope using a fine scissor, pierced once with a fine forcep. Tissues were digested in freshly made digestion buffer (RPMI-1640 containing 100 μg/ml Liberase™ and 50 μg/ml DNase I at 37° C. on a roto-mixer. After 15 min, tissues were very gently mixed using a 1 ml pipette. The supernatant was collected and added to ice-cold MACS buffer (pH 7.4; PBS plus 2% FCS and 2 mM EDTA). Pre-warmed (37° C.) fresh digestion buffer was added to the remaining tissues. After rotation at 37° C. for 15 min, the mixture was vigorously mixed using a 1 ml pipette for 1 min. Supernatants from the two steps were combined and passed through 70 μm filters and stained for FACS (below).
Isolation of cells from the lamina propria (LP). The small intestines were opened longitudinally and washed in ice-cold PBS. For scRNA-seq, roughly 0.5 cm of fragments from each of the distal, middle and proximal regions without visible PPs were collected. Epithelial cells were dissociated by tissue rotation in pre-warmed (37° C.) PBS containing 10 mM EDTA at 37° C. for 15 min, followed by additional incubation on ice for 15 min. Tissues were then shaken vigorously. […]

B1: OVA (protein, UniProt P01012 2-386, looked up)
Ovalbumin: GSIGAASMEFCFDVFKELKVHHANENIFYCPIAIMSALAMVYLGAKDSTRTQINKVVRFDKLPGFGDSIEAQCGTSVNVHSSLRDILNQITKPNDVYSFSLASRLYAEERYPILPEYLQCVKELYRGGLEPINFQTAADQARELINSWVESQTNGIIRNVLQPSSVDSQTAMVLVNAIVFKGLWEKAFKDEDTQAMPFRVTEQESKPVQMMYQIGLFRVASMASEKMKILELPFASGTMSMLVLLPDEVSGLEQLESIINFEKLTEWTSSNVMEERKIKVYLPRMKMEEKYNLTSVLMAMGITDVFSSSANLSGISSAESLKISQAVHAAHAEINEAGREVVGSAEAGVDAASVSEEFRADHPFLFCIKHIATNAVLFFGRCVSP
- percentage of expressing cells in OVA-treated group (gene Ero1l): 0.399
- LN (average fold change) (gene Ero1l): 0.949
- percentage of expressing cells in OVA-treated group (gene Fgl2): 0.61
- LN (average fold change) (gene Fgl2): 0.609
- percentage of expressing cells in OVA-treated group (gene Fth1): 0.963
- LN (average fold change) (gene Fth1): −0.236
- percentage of expressing cells in OVA-treated group (gene Fxyd5): 0.564
- LN (average fold change) (gene Fxyd5): 0.407
- percentage of expressing cells in OVA-treated group (gene Galnt12): 0.086
- LN (average fold change) (gene Galnt12): −0.960
- percentage of expressing cells in OVA-treated group (gene Gapdh): 0.561
- LN (average fold change) (gene Gapdh): 0.420
- percentage of expressing cells in OVA-treated group (gene Gimap5): 0.338
- LN (average fold change) (gene Gimap5): 0.779
- percentage of expressing cells in OVA-treated group (gene Glul): 0.184
- LN (average fold change) (gene Glul): −1.009
- percentage of expressing cells in OVA-treated group (gene Gmfg): 0.31
- LN (average fold change) (gene Gmfg): 0.821
- percentage of expressing cells in OVA-treated group (gene Gpr132): 0.399
- LN (average fold change) (gene Gpr132): −0.573
- percentage of expressing cells in OVA-treated group (gene Gpx4): 0.818
- LN (average fold change) (gene Gpx4): −0.345
- percentage of expressing cells in OVA-treated group (gene H2-Q4): 0.246
- LN (average fold change) (gene H2-Q4): −0.675
- percentage of expressing cells in OVA-treated group (gene H2afj): 0.433
- LN (average fold change) (gene H2afj): 0.452
- percentage of expressing cells in OVA-treated group (gene H3f3b): 0.982
- LN (average fold change) (gene H3f3b): 0.286
- percentage of expressing cells in OVA-treated group (gene Hccs): 0.243
- LN (average fold change) (gene Hccs): 1.079
- percentage of expressing cells in OVA-treated group (gene Hmgb1): 0.552
- LN (average fold change) (gene Hmgb1): −0.400
- percentage of expressing cells in OVA-treated group (gene Igha): 0.951
- LN (average fold change) (gene Igha): 0.407
- percentage of expressing cells in OVA-treated group (gene Igkc): 0.985
- LN (average fold change) (gene Igkc): 0.474
- percentage of expressing cells in OVA-treated group (gene Iglc1): 0.184
- LN (average fold change) (gene Iglc1): −0.692
- percentage of expressing cells in OVA-treated group (gene Irf1): 0.069
- LN (average fold change) (gene Irf1): −1.336
- percentage of expressing cells in OVA-treated group (gene Itk): 0.515
- LN (average fold change) (gene Itk): 0.495
- percentage of expressing cells in OVA-treated group (gene Jarid2): 0.156
- LN (average fold change) (gene Jarid2): 1.269
- percentage of expressing cells in OVA-treated group (gene Kdm6b): 0.65
- LN (average fold change) (gene Kdm6b): 0.555
- percentage of expressing cells in OVA-treated group (gene Kif23): 0.102
- LN (average fold change) (gene Kif23): −1.129
- percentage of expressing cells in OVA-treated group (gene Klf4): 0.336
- LN (average fold change) (gene Klf4): −0.566
- percentage of expressing cells in OVA-treated group (gene Lmna): 0.045
- LN (average fold change) (gene Lmna): −1.627
- percentage of expressing cells in OVA-treated group (gene Ly6a): 0.055
- LN (average fold change) (gene Ly6a): −1.208
- percentage of expressing cells in OVA-treated group (gene Maff): 0.399
- LN (average fold change) (gene Maff): −0.518
- percentage of expressing cells in OVA-treated group (gene Mat2a): 0.288
- LN (average fold change) (gene Mat2a): −0.572
- percentage of expressing cells in OVA-treated group (gene Naca): 0.839
- LN (average fold change) (gene Naca): 0.299
- percentage of expressing cells in OVA-treated group (gene Ndfip1): 0.247
- LN (average fold change) (gene Ndfip1): 0.765
- percentage of expressing cells in OVA-treated group (gene Neurl3): 0.328
- LN (average fold change) (gene Neurl3): −0.470
- percentage of expressing cells in OVA-treated group (gene Nfkb1): 0.81
- LN (average fold change) (gene Nfkb1): 0.501
- percentage of expressing cells in OVA-treated group (gene Nr4a2): 0.383
- LN (average fold change) (gene Nr4a2): 0.702
- percentage of expressing cells in OVA-treated group (gene Nrgn): 0.284
- LN (average fold change) (gene Nrgn): 1.042
- percentage of expressing cells in OVA-treated group (gene Nxpe3): 0.202
- LN (average fold change) (gene Nxpe3): 0.974
- percentage of expressing cells in OVA-treated group (gene Pfn1): 0.974
- LN (average fold change) (gene Pfn1): 0.233
- percentage of expressing cells in OVA-treated group (gene Pgm2l1): 0.065
- LN (average fold change) (gene Pgm2l1): −0.966
- percentage of expressing cells in OVA-treated group (gene Pnrc1): 0.583
- LN (average fold change) (gene Pnrc1): −0.457
- percentage of expressing cells in OVA-treated group (gene Pole4): 0.604
- LN (average fold change) (gene Pole4): 0.415
- percentage of expressing cells in OVA-treated group (gene Polr2e): 0.091
- LN (average fold change) (gene Polr2e): −1.019
- percentage of expressing cells in OVA-treated group (gene Prdx6): 0.507
- LN (average fold change) (gene Prdx6): 0.908
- percentage of expressing cells in OVA-treated group (gene Psap): 0.299
- LN (average fold change) (gene Psap): −0.562
- percentage of expressing cells in OVA-treated group (gene Psmb8): 0.49
- LN (average fold change) (gene Psmb8): −0.441
- percentage of expressing cells in OVA-treated group (gene Psmb10): 0.219
- LN (average fold change) (gene Psmb10): −0.598
- percentage of expressing cells in OVA-treated group (gene Ptp4a1): 0.349
- LN (average fold change) (gene Ptp4a1): −0.514
- percentage of expressing cells in OVA-treated group (gene Ramp3): 0.561
- LN (average fold change) (gene Ramp3): 0.516
- percentage of expressing cells in OVA-treated group (gene Rheb): 0.536
- LN (average fold change) (gene Rheb): 0.631
- percentage of expressing cells in OVA-treated group (gene Rnf19b): 0.279
- LN (average fold change) (gene Rnf19b): 0.971
- percentage of expressing cells in OVA-treated group (gene Rsrp1): 0.24
- LN (average fold change) (gene Rsrp1): −0.708
- percentage of expressing cells in OVA-treated group (gene Saraf): 0.304
- LN (average fold change) (gene Saraf): −0.533
- percentage of expressing cells in OVA-treated group (gene Scp2): 0.382
- LN (average fold change) (gene Scp2): −0.568
- percentage of expressing cells in OVA-treated group (gene Sepp1): 0.254
- LN (average fold change) (gene Sepp1): −0.824
- percentage of expressing cells in OVA-treated group (gene Serp1): 0.554
- LN (average fold change) (gene Serp1): −0.529
- percentage of expressing cells in OVA-treated group (gene Srsf7): 0.251
- LN (average fold change) (gene Srsf7): −0.443
- percentage of expressing cells in OVA-treated group (gene Tgfb1): 0.457
- LN (average fold change) (gene Tgfb1): 0.625
- percentage of expressing cells in OVA-treated group (gene Tgoln1): 0.215
- LN (average fold change) (gene Tgoln1): −0.572
- percentage of expressing cells in OVA-treated group (gene Tiparp): 0.18
- LN (average fold change) (gene Tiparp): −0.904
- percentage of expressing cells in OVA-treated group (gene Tmem64): 0.41
- LN (average fold change) (gene Tmem64): 0.605
- percentage of expressing cells in OVA-treated group (gene Tmsb4x): 1
- LN (average fold change) (gene Tmsb4x): 0.195
- percentage of expressing cells in OVA-treated group (gene Tmsb10): 0.942
- LN (average fold change) (gene Tmsb10): −0.240
- percentage of expressing cells in OVA-treated group (gene Tnfaip3): 0.534
- LN (average fold change) (gene Tnfaip3): −0.487
- percentage of expressing cells in OVA-treated group (gene Tnfaip8): 0.518
- LN (average fold change) (gene Tnfaip8): 0.740
- percentage of expressing cells in OVA-treated group (gene Tpm4): 0.394
- LN (average fold change) (gene Tpm4): 0.964
- percentage of expressing cells in OVA-treated group (gene Tspan13): 0.699
- LN (average fold change) (gene Tspan13): −0.366
- percentage of expressing cells in OVA-treated group (gene Tspan32): 0.073
- LN (average fold change) (gene Tspan32): −0.997
- percentage of expressing cells in OVA-treated group (gene Ubc): 0.303
- LN (average fold change) (gene Ubc): −0.542
- percentage of expressing cells in OVA-treated group (gene Ucp2): 0.612
- LN (average fold change) (gene Ucp2): 0.519
- percentage of expressing cells in OVA-treated group (gene Uhrf2): 0.296
- LN (average fold change) (gene Uhrf2): −0.506
- percentage of expressing cells in OVA-treated group (gene Uqcrh): 0.765
- LN (average fold change) (gene Uqcrh): 0.450
- percentage of expressing cells in OVA-treated group (gene Usmg5): 0.509
- LN (average fold change) (gene Usmg5): −0.414
- percentage of expressing cells in OVA-treated group (gene Vmp1): 0.239
- LN (average fold change) (gene Vmp1): 1.019
- percentage of expressing cells in OVA-treated group (gene Zc3h12a): 0.157
- LN (average fold change) (gene Zc3h12a): −0.866
- percentage of expressing cells in OVA-treated group (gene Zfp36l2): 0.49
- LN (average fold change) (gene Zfp36l2): 0.453
- percentage of expressing cells in OVA-treated group (gene Zrsr1): 0.242
- LN (average fold change) (gene Zrsr1): −0.652
